Results reported in publication PMC5605669.

Biological target: APOBEC3G, wild type (human), Q9HC16
Assay: optical tweezers (single-molecule ssDNA extension); self-association of A3G bound to force-melted lambda-DNA (ssDNA) held at 80 pN; 10 to 200 nM A3G flowed in; 10 mM HEPES, 50 mM Na+, pH 7.5, 21 °C; two-exponential fit of incubation curves, k2 = rate of oligomer formation at saturating binding
Conditions: remark: other sources report otherwise

k2 (rate of oligomer formation on ssDNA): 0.007 s⁻¹
B1: APOBEC3G, wild type, Q9HC16 1-384 (enzyme)
chain: MKPHFRNTVERMYRDTFSYNFYNRPILSRRNTVWLCYEVKTKGPSRPPLDAKIFRGQVYSELKYHPEMRFFHWFSKWRKLHRDQEYEVTWYISWSPCTKCTRDMATFLAEDPKVTLTIFVARLYYFWDPDYQEALRSLCQKRDGPRATMKIMNYDEFQHCWSKFVYSQRELFEPWNNLPKYYILLHIMLGEILRHSMDPPTFTFNFNNEPWVRGRHETYLCYEVERMHNDTWVLLNQRRGFLCNQAPHKHGFLEGRHAELCFLDVIPFWKLDLDQDYRVTCFTSWSPCFSCAQEMAKFISKNKHVSLCIFTARIYDDQGRCQEGLRTLAEAGAKISIMTYSEFKHCWDTFVDHQGCPFQPWDGLDEHSQDLSGRLRAILQNQEN
